Test system: Control-H reference system (specific and nonspecific 200 bp DNA fragments from pBR322)
Assay: mTAG labeling, biotinylation, capture on streptavidin beads and multiplex real-time PCR of Control-H reference system
Conditions: Control-H alone; Ado-11-amine cofactor; 228 nM enzyme; 37° C. 2 hours; percentage of material used for bead separation

B1: HpaII (Q104A/N335A): His6-tagged M.HpaII C5 DNA methyltransferase (CCGG target site) double-alanine mutant Q104A/N335A (protein, UniProt P15446 1-358, looked up, variant Q104A N335A)
Type II methyltransferase …: MKDVLDDNLLEEPAAQYSLFEPESNPNLREKFTFIDLFAGIGGFRIAMQNLGGKCIFSSEWDEQAQKTYEANFGDLPYGDITLEETKAFIPEKFDILCAGFPCAAFSIAGKRGGFEDTRGTLFFDVAEIIRRHQPKAFFLENVKGLKNHDKGRTLKTILNVLREDLGYFVPEPAIVNAKNFGVPQNRERIYIVGFHKSTGVNSFSYPEPLDKIVTFADIREEKTVPTKYYLSTQYIDTLRKHKERHESKGNGFGYEIIPDDGIANAIVVGGMGRERNLVIDHRITDFTPTTNIKGEVNREGIRKMTPREWARLQGFPDSYVIPVSDASAYKQFGASVAVPAIQATGKKILEKLGNLYD
modifications: His6 tag
  level of nonspecific probe found on beads: 5-6%
  yield of unmethylated (specific) probe recovered on beads: 50-60%
